Results published in patent publication US20080194485.

Biological target: prekallikrein (PK), P03952
Sequence (P03952 20-638): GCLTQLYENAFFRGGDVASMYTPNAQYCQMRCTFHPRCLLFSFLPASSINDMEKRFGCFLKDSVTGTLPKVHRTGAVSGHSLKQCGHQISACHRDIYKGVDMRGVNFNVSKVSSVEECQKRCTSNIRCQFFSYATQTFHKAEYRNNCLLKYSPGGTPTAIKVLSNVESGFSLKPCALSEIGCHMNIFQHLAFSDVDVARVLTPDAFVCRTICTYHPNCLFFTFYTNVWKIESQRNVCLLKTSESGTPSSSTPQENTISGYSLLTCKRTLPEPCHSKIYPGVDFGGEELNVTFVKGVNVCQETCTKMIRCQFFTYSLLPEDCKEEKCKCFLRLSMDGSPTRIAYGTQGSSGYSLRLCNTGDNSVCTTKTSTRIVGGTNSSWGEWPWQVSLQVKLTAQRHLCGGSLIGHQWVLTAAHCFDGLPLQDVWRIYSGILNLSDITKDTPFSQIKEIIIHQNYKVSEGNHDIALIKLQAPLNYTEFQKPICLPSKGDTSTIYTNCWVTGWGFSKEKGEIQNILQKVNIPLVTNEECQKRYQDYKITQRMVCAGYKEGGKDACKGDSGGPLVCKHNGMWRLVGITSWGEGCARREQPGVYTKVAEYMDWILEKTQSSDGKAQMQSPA

B1: recombinant PRCP51 (recombinant human prolylcarboxypeptidase, predicted molecular mass 51 kDa) (protein)
chain: KNYSVLYFQQKVDHFGFNTVKTFNQRYLVADKYWKKNGGSILFYTGNEGDIIWFCNNTGFMWDVAEELKAMLVFAEHRYYGESLPFGDNSFKDSRHLNFLTSEQALADFAELIKHLKRTIPGAENQPVIAIGGSYGGMLAAWFRMKYPHMVVGALAASAPIWQFEDLVPCGVFMKIVTTDFRKSGPHCSESIHRSWDAINRLSNTGSGLQWLTGALHLCSPLTSQDIQHLKDWISETWVNLAMVDYPYASNFLQPLPAWPIKVVCQYLKNPNVSDSLLLQNIFQALNVYYNYSGQVKCLNISETATSSLGTLGWSYQACTEVVMPFCTNGVDDMFEPHSWNLKELSDDCFQQWGVRPRPSWITTMYGGKNISSHTNIVFSNGELDPWSGGGVTKDITDTLVAVTISEGAHHLDLRTKNALDPMSVLLARSLEVRHMKNWIRDFYDSAGKQH
- Km of prekallikrein activation: Recombinant PRCP51 activates PK with a Km and Vmax of 9 nM and 0.2 min^-1, respectively
- Vmax of prekallikrein activation: Recombinant PRCP51 activates PK with a Km and Vmax of 9 nM and 0.2 min^-1, respectively
